# Source: IntAct's records for PubMed 37582800
# B1: HTH-type transcriptional regulator MalT (Escherichia coli (strain K12)), P06993 (parent)
# chain: MLIPSKLSRPVRLDHTVVRERLLAKLSGANNFRLALITSPAGYGKTTLISQWAAGKNDIGWYSLDEGDNQQERFASYLIAAVQQATNGHCAICETMAQKRQYASLTSLFAQLFIELAEWHSPLYLVIDDYHLITNPVIHESMRFFIRHQPENLTLVVLSRNLPQLGIANLRVRDQLLEIGSQQLAFTHQEAKQFFDCRLSSPIEAAESSRICDDVSGWATALQLIALSARQNTHSAHKSARRLAGINASHLSDYLVDEVLDNVDLATRHFLLKSAILRSMNDALITRVTGEENGQMRLEEIERQGLFLQRMDDTGEWFCYHPLFGNFLRQRCQWELAAELPEIHRAAAESWMAQGFPSEAIHHALAAGDALMLRDILLNHAWSLFNHSELSLLEESLKALPWDSLLENPQLVLLQAWLMQSQHRYGEVNTLLARAEHEIKDIREDTMHAEFNALRAQVAINDGNPDEAERLAKLALEELPPGWFYSRIVATSVLGEVLHCKGELTRSLALMQQTEQMARQHDVWHYALWSLIQQSEILFAQGFLQTAWETQEKAFQLINEQHLEQLPMHEFLVRIRAQLLWAWARLDEAEASARSGIEVLSSYQPQQQLQCLAMLIQCSLARGDLDNARSQLNRLENLLGNGKYHSDWISNANKVRVIYWQMTGDKAAAANWLRHTAKPEFANNHFLQGQWRNIARAQILLGEFEPAEIVLEELNENARSLRLMSDLNRNLLLLNQLYWQAGRKSDAQRVLLDALKLANRTGFISHFVIEGEAMAQQLRQLIQLNTLPELEQHRAQRILREINQHHRHKFAHFDENFVERLLNHPEVPELIRTSPLTQREWQVLGLIYSGYSNEQIAGELEVAATTIKTHIRNLYQKLGVAHRQDAVQHAQQLLKMMGYGV
# partner: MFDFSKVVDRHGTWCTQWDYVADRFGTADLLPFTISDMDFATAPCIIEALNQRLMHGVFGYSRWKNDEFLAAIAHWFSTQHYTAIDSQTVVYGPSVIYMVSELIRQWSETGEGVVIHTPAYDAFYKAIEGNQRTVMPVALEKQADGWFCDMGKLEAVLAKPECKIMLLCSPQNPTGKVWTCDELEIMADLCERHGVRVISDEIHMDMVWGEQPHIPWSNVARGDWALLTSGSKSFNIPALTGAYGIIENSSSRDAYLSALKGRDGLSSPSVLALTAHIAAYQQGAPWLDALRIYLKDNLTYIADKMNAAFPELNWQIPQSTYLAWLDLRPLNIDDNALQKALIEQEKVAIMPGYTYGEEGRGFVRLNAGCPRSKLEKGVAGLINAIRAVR
# B2: Protein MalY (Escherichia coli (strain K12)), P23256 (parent)
# chain: B1 partner
# partner: B1 chain
# Variants of: B1
# Details: with maly_ecoli malY
row,effect of a mutation on the interaction,Variant
1,with no effect,N169A
2,disrupting interaction strength,R173A

# Continued, variant first:
row,Variant,effect of a mutation on the interaction
1,R143A,disrupting interaction strength
2,R143A;R173A,disrupting interaction strength
3,E140A,with no effect

# Variants of: B2
# Details: with malt_ecoli malT
row,effect of a mutation on the interaction,Variant
1,with no effect,MFDFSKVVDRHGTWCTQWDYVADRFGTADLLPFTISDMDFATAPCIIEALNQRLMHGVFGYSRWKNDEFLAAIAHWFSTQHYTAIDSQTVVYGPSVIYMVSELIRQWSETGEGVVIHTPAYDAFYKAIEGNQRTVMPVALEKQADGWFCDMGKLEAVLAKPECKIMLLCSPQNPTGKVWTCAELAIMADLCERHGVRVISDEIHMDMVWGEQPHIPWANVARGDWALLTSGSKSFNIPALTGAYGIIENSSSRDAYLSALKGRDGLSSPSVLALTAHIAAYQQGAPWLDALRIYLKDNLTYIADKMNAAFPELNWQIPQSTYLAWLDLRPLNIDDNALQKALIEQEKVAIMPGYTYGEEGRGFVRLNAGCPRSKLEKGVAGLINAIRAVR [D182A;E185A;S218A]
